{
  "source": "patent US20250333441A1",
  "about": "“POLYPEPTIDE INHIBITORS AND USES THEREOF” (Neuracle Science Co., Ltd., priority 2021, published 2025)",
  "molecules": {"B1": {"name": "LRRC4B (453-576): LRRC4B fragment, amino acids 453-576 of SEQ ID NO: 2 (SEQ ID NO: 7); used hFc-fused (protein)", "chain": "VSAVDPVAAGGTGSGGGGPGGSGGVGGGSGGYTYFTTVTVETLETQPGEEALQPRGTEKEPPGPTTDGVWGGGRPGDAAGPASSSTTAPAPRSSRPTEKAFTVPITDVTENALKDLDDVMKTTK", "modifications": "human Fc fusion in use", "notes": "used hFc-fused"}},
  "key": {"[1]": {"molecular_target": "FAM19A5 protein (Homo sapiens, UniProt Q7Z5A7)", "sequence (Q7Z5A7 44-132)": "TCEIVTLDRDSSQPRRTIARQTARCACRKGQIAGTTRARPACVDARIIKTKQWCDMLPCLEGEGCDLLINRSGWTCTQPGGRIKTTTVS", "assay": "Co-immunoprecipitation of FLAG-tagged LRRC4 family constructs with recombinant FAM19A5 in HEK293 cells", "assay_type": "binding", "conditions": "HEK293 cells expressing FLAG-tagged construct, recombinant FAM19A5 protein (1 μM) 30 minutes; anti-FLAG immunoprecipitation"}, "[2]": {"tested_on": "mouse primary cortical neurons", "assay": "Neurite growth of primary cortical neurons (beta-tubulin III immunostaining)", "assay_type": "cell-based", "conditions": "0.006 to 60 nM; day 3 post-initial culture; versus DMSO control", "description": "Next, primary cortical neurons (day 1 postnatal) were cultured in vitro with varying concentrations (0.006 to 60 nM) of the LRRC4B (453-576) protein fragment (i.e., amino acid residues 453-576 of SEQ ID NO: 2; SEQ ID NO: 7), and then at day 3 post-initial culture, the effect on neurite growth was assessed by immunostaining the cells with anti-beta-tubulin III antibody. Cells cultured with DMSO (“Veh”) were used as control.\nMouse hippocampal neurons were treated with LRRC4B peptides at 1 and 2 DIV to determine neurite growth. It was measured by using 3 different parameters, which are total neurites length, number of primary and secondary neurites. After the neurons were stained with beta-tubulin III at 3 DIV, neurites length and branch points were measured using Fiji (Image J, NIH, Bethesda). Individual neurons were selected by hand and these parameters were counted using the Simple neurite tracer plugin. Mouse spinal motor neurons sampled at postnatal day 1 were treated with 10 nM of NS101 and LRRC4B-peptides (dFB-dWY-JM31 and dFB-DY-JM31) at 1 and 2 DIV and immunostained with Tau-5 antibody at 3 DIV. Total neurite length and number of somas in images were measured by Neurphology Image J plugin."}, "[3]": {"tested_on": "APP/PS1 mice (Alzheimer mouse model)", "assay": "Synaptic formation in hippocampal CA1 and CA3 of APP/PS1 mice", "assay_type": "in vivo", "conditions": "30 mg/kg intravenous, four consecutive weeks; compared to mutant LRRC4B protein fragment", "description": "FIGS. 16A, 16B, and 16C show the ability of LRRC4B peptide fragment (amino acid residues 453-576 of SEQ ID NO: 2; “WT”) (i.e., SEQ ID NO: 7) to promote synaptic formation in the hippocampal CA1 of APP/PS1 mice. As further described in Example 8, APP/PS1 mice were treated with the LRRC4B peptide fragment (30 mg/kg; intravenous administration) for four consecutive weeks, and then synaptic formation was assessed by fluorescence microscopy using antibodies against SYP and PSD95. Control animals received no treatment (“Cont”) or the mutant LRRC4B peptide fragment […] (i.e., comprising alanine substitutions at positions 488 and 489 of SEQ ID NO: 2; SEQ ID NO: 16). FIG. 16A provides representative fluorescent photomicrographs. FIGS. 16B and 16C show the SYP and PSD95 intensity, respectively.\nFIGS. 17A, 17B, and 17C show the ability of LRRC4B peptide fragment (amino acid residues 453-576 of SEQ ID NO: 2; “WT”; SEQ ID NO: 7) to promote synaptic formation in the hippocampal CA3 of APP/PS1 mice. The animals were treated and analyzed as described in FIGS. 16A-16C. FIG. 17A provides representative fluorescent photomicrographs. FIGS. 17B and 17C show the SYP and PSD95 intensity, respectively.\nAdditionally, to confirm the above effect on neurite outgrowth in vivo, APP/PS1 mice (Alzheimer mouse model) were used. […] Hong et al., Science 352(6286): 712-716 (May 2016). […]"}},
  "data": [
    {"molecule": "B1", "values": [
      {"measurement": "binding to FAM19A5 protein (co-immunoprecipitation)", "setting": "[1]", "result": "able to bind to the FAM19A5 protein"},
      {"measurement": "neurite growth", "setting": "[2]", "result": "increased neurite growth in a dose-dependent manner"},
      {"measurement": "SYP and PSD95 immunoreactivities in CA1 and CA3", "setting": "[3]", "result": "increased SYP and PSD95 immunoreactivities"}
    ]}
  ]
}
